Experimental findings from patent US20250361299A1 (ZHEJIANG SHIMAI PHARMACEUTICAL, published 2025) are described below.

The test deals with T1, Recombinant human EGFR (human, UniProt P00533 25-645).
T1 construct: Bought protein coated on ELISA plates (100 ng per well); also called human antigen EGFR
The experiment in a line: ELISA on coated human EGFR, antibody not treated with uPA. On the procedure:
To determine the binding affinity of proBiTEs to CD3 and EGFR, ELISA was performed according to standard protocols. Briefly, human antigen CD3 and EGFR were coated on Corning EIA/RIA high-binding 96-well plates (Corning Inc.) at 100 ng per well overnight at 4° C. and blocked with 3% nonfat milk in PBS (pH7.4). For cleavage with urokinase (uPA), 30 μg antibodies were mixed with or without 0.3 μg recombinant human uPA (50 μg/mL) (Sino Biological) in PBS (pH7.4) and incubated at room temperature for 4 hour. Then the mixture with or without uPA was diluted in a fivefold gradient and incubated at room temperature for 2 h. The plates were washed with PBS containing 1% nonfat milk. Bound antibodies were detected by HRP-conjugated streptavidin (Sigma). The assay was developed at room temperature with TMB substrate (Solarbio) and monitored at 450 nm with a microplate reader. The half-maximal binding (EC₅₀) was calculated by fitting the data to the Langmuir adsorption isotherm.

B1: 1.6.1M-Pa proBiTE (bispecific antibody)
heavy: QDGNEEMGGGSQDGNEEMGGIGGGSGGGGSGLSGRSDNHGGGGSEVQLVESGGGLVQPGGSLRLSCAASGFTFNTYAMNWVRQAPGKGLEWVARIRSKYNNYATYYADSVKGRFTISRDDSKNTLYLQMNSLRAEDTAVYYCARHGNFGSSYVSYFAYWGQGTTVTVSSASTKGPSVFPLAPSSKSTSGGTAALGCLVKDYFPEPVTVSWNSGALTSGVHTFPAVLQSSGLYSLSSVVTVPSSSLGTQTYICNVNHKPSNTKVDKKVEPKSCPPCPAPEAAGAPSVFLFPPKPKDTLMISRTPEVTCVVVDVSHEDPEVKFNWYVDGVEVHNAKTKPREEQYNSTYRVVSVLTVLHQDWLNGKEYKCKVSNKALPAPIEKTISKAKGQPREPQVYTLPPSRDELTKNQVSLLCLVKGFYPSDIAVEWESNGQPENNYKTTPPVLDSDGSFFLHSKLTVDKSRWQQGNVFSCSVMHEALHNHYTQKSLSLSPGK
light: QVQLQESGPGLVKPSETLSLTCTVSGGSVSSGDYYWTWIRQSPGKGLEWIGHIYYSGNTNYNPSLKSRLTISIDTSKTQFSLKLSSVTAADTAIYYCVRDRVTGAFDIWGQGTMVTVSSGGGGSGGGGSGGGGSGGGGSDIQMTQSPSSLSASVGDRVTITCQASQDISNYLNWYQQKPGKAPKLLIYDASNLETGVPSRFSGSGSGTDFTFTISSLQPEDIATYFCQHFDHLPLAFGGGTKVEIKGGGGSGGGGSGGGGSGGGGSEIVVTQSPATLSVSPGERATLSCRSSTGAVTTSNYANWVQQKPGQAPRGLIGGANKRAPGVPARFSGSLSGDEATLTISSLQSEDFAVYYCALWYSNLWVFGQGTKLEIKRTVAAPSVFIFPPSDEQLKSGTASVVCLLNNFYPREAKVQWKVDNALQSGNSQESVTEQDSKDSTYSLSSTLTLSKADYEKHKVYACEVTHQGLSSPVTKSFNRGECPPCPAPEAAGAPSVFLFPPKPKDTLMISRTPEVTCVVVDVSHEDPEVKFNWYVDGVEVHNAKTKPREEQYNSTYRVVSVLTVLHQDWLNGKEYKCKVSNKALPAPIEKTISKAKGQPREPQVYTLPPSRDELTKNQVSLLCLVKGFYPSDIAVEWESNGQPENNYKTTPPVLDSDGSFFLHSKLTVDKSRWQQGNVFSCSVMHEALHNHYTQKSLSLSPGK
notes: Intact, not treated with uPA; As 1.6.1M proBiTE but with a panitumumab anti-EGFR scFv in the light chain
Consider B1, for which the binding result was “binds”.

B2: 1.6.1M-2-1-Pa proBiTE (bispecific antibody)
heavy: QDGNEEMGGGSQDGNEEMGGIGGGSGGGGSGLSGRSDNHGGLSGRSDNHGGSEVQLVESGGGLVQPGGSLRLSCAASGFTFNTYAMNWVRQAPGKGLEWVARIRSKYNNYATYYADSVKGRFTISRDDSKNTLYLQMNSLRAEDTAVYYCARHGNFGSSYVSYFAYWGQGTTVTVSSASTKGPSVFPLAPSSKSTSGGTAALGCLVKDYFPEPVTVSWNSGALTSGVHTFPAVLQSSGLYSLSSVVTVPSSSLGTQTYICNVNHKPSNTKVDKKVEPKSCPPCPAPEAAGAPSVFLFPPKPKDTLMISRTPEVTCVVVDVSHEDPEVKFNWYVDGVEVHNAKTKPREEQYNSTYRVVSVLTVLHQDWLNGKEYKCKVSNKALPAPIEKTISKAKGQPREPQVYTLPPSRDELTKNQVSLLCLVKGFYPSDIAVEWESNGQPENNYKTTPPVLDSDGSFFLHSKLTVDKSRWQQGNVFSCSVMHEALHNHYTQKSLSLSPGK
light: B1 light
notes: Intact, not treated with uPA
On to B2, for which the binding result is “binds”.
